Test results published in the RNAGym collection of RNA variant scans (doi:10.1073/pnas.2313332121).

B1: TPR t1 (parent)
chain: GACCAAUCUGCCCUCAGAGCUCGAGAACAUCUUCGGAUGCAGAGGAGGCAGGCUUCGGUGGCGCGAUAGCGCCAACGUCCUCAACCUCCAAUGCAUCCCACCACAUGAUGAUGCCUGAAGAGCCUUGGUUUUUUG

Variants of: B1
Assay: polymerase ribozyme fitness, log enrichment relative to wild type (log ratio); higher = more active; in vitro selection for triplet polymerase activity
Procedure, shortened: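 PCR was used to build mutant libraries for each subunit of a heterodimeric triplet polymerase ribozyme, which were then transcribed. A single in vitro selection round, in triplicate, used a frozen incubation at −7 °C and recovered extended constructs by gel excision, streptavidin beads and RT-PCR. Fitness is the logarithm of genotype enrichment relative to wild-type enrichment, averaged over replicates with inverse-variance weights. The logarithm is base 2, and after Illumina sequencing only genotypes with ≥10 input reads and ≥1 read per output were kept.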

Point of comparison: G35A C73A, “polymerase ribozyme fitness (log ratio)” value -3.7. Against it:
- G36A C82U C123G — higher, 0.9
- C34G G63A — lower, -7.1
- C34G G63U — lower, -8.24
- G36A G61A A103C A118U — lower, -5.74
- G35C C72U C99A C102U U116C U130G — lower, -6.33
- G36C C70U — higher, -1.72
- G36C A50C G52A — lower, -4.73
- A37C A46G G61U C64U — lower, -5.42
- A37C G42U C88A A111G — lower, -4.05
- C34U G44U — lower, -4.41
- G36U C124G — higher, 0.74
- G36U C124U — higher, 0.315
- A37U G77U — higher, -0.679
- G36C C49G C70U — higher, -2.37
- G36C C53G C56A A95U — higher, -2.45
- C34U C53U U109G A119U A121C — lower, -6.04
- G36A C72U C85G C89U C94U — higher, -2.78
- C34U A95C — lower, -5
- A37C C64U U92G — higher, -2.59
- A37U A74C C102A C104U — higher, -2.41
- G35A C53U G57U G69A A83U C115U — lower, -6.36
- G36A A46C G61A A90C A118C — lower, -6.53
- C34U G117U — lower, -5.02
- G36A C85G U131C — higher, -2.08
- A37G C104U G113A U130G — higher, -1.23
- G36A G51U G120A — higher, -3.42
- C34U G52A C62G A119G C123U G135C — lower, -5.87
- A37G C98U — higher, -1.79
- A37U G52C G120C — higher, 0.23
- A37G C115U — higher, -0.85
- G36U C40U A121U G122C — higher, -0.484
- G36A G44U C70U A111C — higher, -2.48
- A37C G45A A83C A100U G113C — lower, -4.29
- G36C U87G U116A — lower, -5.07
- A37G C40U G51U C82G — within 0.2 log units, -3.82
- A37G C53G G69A G110U U132C — lower, -6.38
- G36U G48U U78A — higher, -2.21
- G36A C70A — higher, -2.23
- A37G G57A U106C G120C U129A — higher, -3.11
- G36A C70U C76A C85U — lower, -3.99
- C34U C62A — lower, -4.23
- C34G G51U C53A G69U G120U — lower, -7.39
- A37G U96A — higher, -3.44
- A37U G57C C85U U125A — higher, -1.95
- G36A U59A — higher, -0.196
- A37U C72U A83G C86U — higher, 0.0963
- C34U U112A — higher, -2.99
- G35A C88G — lower, -4.5
- A37U A46U U131G — higher, -2.61
- A37C A95G — higher, -0.966
- G35A U131A — lower, -4.99
- G36U U59A A90G C97G U106C — higher, -1.98
- G35A G48C C123G — higher, -2.75
- A37U C89A A95U C123A — higher, -3
- A37G U55C C56A C88A — lower, -4.55
- C34U C101U U112A — lower, -6.92
- C34U A37C G60C C124A — within 0.2 log units, -3.79
- G35A C101U C115A — within 0.2 log units, -3.56
- G36U A46G — higher, -0.974
- A37C A75U C89U C102A — higher, -2.92
- C34U U54A — lower, -4.44
- G36C G61C — higher, -2.42
- G36A U54G — higher, -1.04
- A37C G39A C62U — higher, -3.21
- G36A A37G C72U G122A — higher, -1.5
- A37U C97G U112C — lower, -4.07
- A37C C56G U125A — higher, -1.58
- A37C C85A G113C — higher, -3.33
- G35U G39U C72U A75U A103U — lower, -8.04
- A37U C72U A75U U78G C124A — higher, 1.33
- A37U G60A G93C U112C C115G G122U U130A — lower, -6.13
- G36U U78G C97A — higher, -0.315
- C34U C86A C114U — lower, -5.07
- G35U G63U — lower, -6.36
- G36C A66G C72U — within 0.2 log units, -3.78
- A37U A83U U96A C124U U131A — higher, 1.19
- G35C C124A — higher, -2.66
- A37G C114U U129C — higher, -3.17
- G36A G110U A121U — higher, -2.05
- G36C G47A G110A G127U — higher, -2.57
- C34G G120A — lower, -5.16
- C34G C79A A91C C97U C99U A100C C101U G113C U130A — lower, -6.71
- C34U U133A — lower, -4.62
- G36U G44A G63A — within 0.2 log units, -3.52
- G35U A46G G69U C98A — higher, -0.783
- A37U G120C — higher, -0.129
- G36U G39A C53A C94G C124G G127C — higher, -2.11
- G36A G57A G60U U131G — higher, -0.901
- A37C G42U G48C A50U C70U G120U C124U — within 0.2 log units, -3.73
- C34G U78G — lower, -6.71
- A37U C114A — higher, -0.828
- C34G G61U C64U C99A G120A A121G — lower, -5.39
- A37C G48C U54C G63A A74U G113A — lower, -5.41
- C34U G120A A121C — lower, -4.71
- G36A A46U G47C C56U U106A — within 0.2 log units, -3.75
- A37G G113A — higher, -1.4
- A37G G113C — higher, -2.15
- C34G C115G — lower, -7.42
- A37C U54A G93C — higher, -1.23
- G35A U78C — within 0.2 log units, -3.74
- C34U G45C C124G — higher, -3.01
- G36U C99U C124A — higher, -3.03
- A37G C56U — higher, -0.0501
- A37U G58A A100C C114U U133G — lower, -4.99
- G35U G69U C79U — higher, -3.35
- G36C G61U C114A — higher, -2.77
- G36A C64G C104G G110A G127U — lower, -6.24
- A37G A84C — higher, -0.444
- C34G C98G C115A U125A — lower, -7.53
- G36A C102A C104A G120U — lower, -4.83
- G36A G69A C73A G122A — lower, -4.15
- G36C U54G G61U — lower, -5.87
- G35A C62U — lower, -4.22
- G35A C62A — lower, -5.05
- G35A U59C U116G G122U C124G — lower, -6.12
- A37C G48C U54C G113A — higher, -2.76
- G36U U78G C115G — lower, -4.29
- A37U G57A C89G — lower, -3.91
- G36U C85A C104A — lower, -3.96
- A37U C53U G58C A66U C76G U106C — higher, -2.44
- G36A C62A C89U A95C C114U — lower, -6.66
- A37U C115U — higher, -0.707
- A37U C115A — higher, -0.816
- G36U U54G G69A — lower, -5.06
- G36U G71U G117A — lower, -4.25
- A37C G63C G77C C88U A105U — lower, -5.64
- A37U C97U — higher, -2.15
- G35U C53U G69U G110U — lower, -4.63
- G35U G61U — lower, -5.28
- G36A C123A — higher, 0.117
- G36A G44A C73G C79U U116G — lower, -5.21
- G35A U55A U78G C89U A91C C124A U126G G128U — lower, -6.76
- G35U C82U C115A — lower, -6.43
- A37U G44C A100G C104U C115A — lower, -5.44
- A37U C80G — lower, -5.42
- G35A A103G — lower, -6.59
- A37C G39C — lower, -4.38
- G35C U129G — lower, -6.04
- C34U U59G A121C C124G — within 0.2 log units, -3.59
- G36C G63U C98U — higher, -3.08
- A37U C72A — higher, -0.493
- G36C C64U C85U — higher, -1.78
- G36C U78C A95C — higher, -2.98
- A37U A74C A83U G117U — higher, -3.26
- A37U A83U U106A — higher, 0.192
- G36U G60A G113A — higher, -1.62
- C34U U54A G61A — lower, -4.4
- G36C U55G — higher, -1.03
- G36U U38C C72A C115G A118U C124G U131C — lower, -5.85
- A37G U92C U106C G110A — within 0.2 log units, -3.53
- A37G C70U — higher, -0.719
- G36U C64U A119G — higher, 0.0711
- A37G U92A — higher, -2.8
- A37C U55G C76U A105U — higher, -2.68
- G35C C49G U78A — lower, -5.52
- C34U G122U — within 0.2 log units, -3.58
- G35U G45A U81A C89A G120A — lower, -4.73
- G35A G63C G71U C114A — lower, -6.69
- A37U C53A G63A C94G G120C U131A — higher, -3.11
- G36U A46C A50U A84U — lower, -5.6
- A37U C70A — higher, -1.11
- G36U C101A U130C — higher, -1.6
- C34U U106A — lower, -4.95
- C34U U106C — lower, -3.99
- G35A C85G U106G G120C — lower, -4.02
- G36A C72G U92A — lower, -5.43
